What was measured:
human IL-34 [1] = target: T1, human IL-34 (human, UniProt Q6ZMJ4 21-242); assay: cell-based or functional assay
T1 sequence: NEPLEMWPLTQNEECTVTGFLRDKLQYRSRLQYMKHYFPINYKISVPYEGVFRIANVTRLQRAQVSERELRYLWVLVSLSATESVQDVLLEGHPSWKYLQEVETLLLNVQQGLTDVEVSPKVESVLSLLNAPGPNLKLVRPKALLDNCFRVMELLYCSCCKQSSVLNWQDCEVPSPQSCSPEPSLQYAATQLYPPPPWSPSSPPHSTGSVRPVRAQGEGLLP

human IL-34 [2] = target: T1, human IL-34; assay: competition ELISA; displacement of biotinylated human IL-34 (3.7 nM) from plate-bound hCSF1R_Fc
Description: (§1) CSF1R extracellular domain proteins (hCSF1R_Fc commercially available from R&D Cat #329-MR, cynomolgus CSF1R ECD-Fc (AAA is a linker between CSF1R extracellular domain and Fc) (SEQ ID NO: 34)) can be bound to an ELISA plate at concentrations of 30 nM in order to capture soluble biotinylated IL-34 and allowed to bind for one hour. After washing and blocking plate, biotinylated IL-34 may be added, then detected via streptavidin conjugated peroxidase. Concentrations of labeled IL-34 near the 80% binding level (EC₈₀) (3.7 nM) may be used in conjunction with a range of antibody concentrations (0-100 nM) to determine concentration of antibody required to displace IL-34 from CSF1R. After 1 hr incubation, IL-34 bound to CSF1R is detected via streptavidin conjugated peroxidase. The antibodies are assayed (n=2) and the average and standard deviation at each concentration are calculated. The potency of an antibody to displace IL-34 from CSF1R is reported as IC₅₀ (nM) with the calculated confidence interval (CI) in Table 4 and Table 5.

cynomolgus monkey IL-34 [3] = target: T2, cynomolgus monkey IL-34 (cynomolgus monkey, UniProt G7Q1L3 21-242); assay: competition ELISA; displacement of biotinylated cyno IL-34 from plate-bound cynomolgus CSF1R ECD-Fc
T2 construct: Biotinylated in the displacement ELISA; also called cyno IL-34
T2 sequence: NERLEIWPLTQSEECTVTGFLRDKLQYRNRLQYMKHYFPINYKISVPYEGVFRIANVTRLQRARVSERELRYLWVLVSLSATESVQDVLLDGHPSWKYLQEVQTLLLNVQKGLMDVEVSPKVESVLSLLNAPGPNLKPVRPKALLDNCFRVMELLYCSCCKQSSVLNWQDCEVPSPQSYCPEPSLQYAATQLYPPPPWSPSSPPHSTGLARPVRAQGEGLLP
Description: as §1

human IL-34 [4] = target: T1, human IL-34; assay: SPR, BIAcore 8K, 37 C; antibody captured on Protein A chip, IL-34 in flow; 1:1 fit; average of at least three experiments
Description: (§2) Binding affinity of anti-IL-34 monoclonal antibodies of the present disclosure to human and/or cynomolgus monkey (cyno) IL-34 may be determined by methods known in the art. […] For each cycle, 200 μL IL-34 is flowed over the immobilized antibody at 100 μL/minute, and then dissociated for 20 minutes. The chip surface is regenerated with 50 μL of glycine buffer at pH 1.5 at a flow rate of 100 μL/minute. The data are fit to a 1:1 Langmiur binding mode to derive kon, koff and to calculate KD.

cynomolgus monkey IL-34 [5] = target: T2, cynomolgus monkey IL-34; assay: as above
Description: as §2

B1: Antibody 1 (antibody, human IgG4 S228P, kappa, F234A L235A, V domains shown)
VH: EVQLLESGGGLVQPGGSLRLSCAASGFAFSNYAMSWVRQAPGKGLEWVSAISASGGKTYYADSVKGRFTISRDNSKNTLYLQMNSLRAEDTAVYYCAKRGYLWHAFDHWGRGTLVTVSS
VL: EIVLTQSPGTLSLSPGERATLSCRASQSVYSSYLAWYQQKPGQAPRLLIYGASSRATGIPDRFSGSGSGTDFTLTISRLEPEDFAVYYCQVVGSSPPFTFGGGTKVEIKR
notes: Human anti-human IL-34 antibody; IgG4 PAA hinge/Fc without the C-terminal lysine; also called Exemplified Antibody 1; exemplified antibody 1
With B1 the “IC50 (ug/ml), neutralization of human IL-34 (100 ng/ml) induced luciferase reporter activity in hCSF1R expressing 293 SRE cells” value (human IL-34 [1]) was 0.0533 µg/mL, the IC50 (human IL-34 [2]) was 0.0657 nM and the IC50 (cynomolgus monkey IL-34 [3]) was 1.41 nM. It also gave a Kd (human IL-34 [4]) of 0.0338 nM, a koff (human IL-34 [4]) of 0.00019 s⁻¹ and a kon (human IL-34 [4]) of 5.6e+06 M⁻¹ s⁻¹. It also gave a Kd (cynomolgus monkey IL-34 [5]) of 0.039 nM, a koff (cynomolgus monkey IL-34 [5]) of 0.00031 s⁻¹ and a kon (cynomolgus monkey IL-34 [5]) of 8.1e+06 M⁻¹ s⁻¹.

From patent US20260125460A1 (Eli Lilly, published 2026)
